T1: human DLL3 on cells (human, UniProt Q9NYJ7 27-618)
T1 construct: Endogenous on H1184 and SHP77; Cell line is named under assay; also called H1184; DLL3/H82
T1 sequence: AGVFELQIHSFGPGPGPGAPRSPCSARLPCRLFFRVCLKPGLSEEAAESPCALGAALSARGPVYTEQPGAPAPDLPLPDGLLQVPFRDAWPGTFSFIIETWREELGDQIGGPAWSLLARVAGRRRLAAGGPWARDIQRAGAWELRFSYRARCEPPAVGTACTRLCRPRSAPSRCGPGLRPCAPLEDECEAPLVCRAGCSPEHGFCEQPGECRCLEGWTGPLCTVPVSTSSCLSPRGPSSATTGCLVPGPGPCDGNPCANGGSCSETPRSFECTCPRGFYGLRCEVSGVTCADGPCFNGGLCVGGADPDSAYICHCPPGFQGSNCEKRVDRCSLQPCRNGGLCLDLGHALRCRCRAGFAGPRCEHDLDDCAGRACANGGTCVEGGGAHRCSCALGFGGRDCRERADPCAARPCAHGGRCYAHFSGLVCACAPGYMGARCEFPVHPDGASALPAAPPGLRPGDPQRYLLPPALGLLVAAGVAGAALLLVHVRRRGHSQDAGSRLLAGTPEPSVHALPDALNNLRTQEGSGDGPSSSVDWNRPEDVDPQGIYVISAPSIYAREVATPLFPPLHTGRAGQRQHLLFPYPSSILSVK

T2: human DLL3 (ACRO, DLL3-H52H4) (human, UniProt Q9NYJ7 27-492)
T2 construct: Bought
T2 sequence: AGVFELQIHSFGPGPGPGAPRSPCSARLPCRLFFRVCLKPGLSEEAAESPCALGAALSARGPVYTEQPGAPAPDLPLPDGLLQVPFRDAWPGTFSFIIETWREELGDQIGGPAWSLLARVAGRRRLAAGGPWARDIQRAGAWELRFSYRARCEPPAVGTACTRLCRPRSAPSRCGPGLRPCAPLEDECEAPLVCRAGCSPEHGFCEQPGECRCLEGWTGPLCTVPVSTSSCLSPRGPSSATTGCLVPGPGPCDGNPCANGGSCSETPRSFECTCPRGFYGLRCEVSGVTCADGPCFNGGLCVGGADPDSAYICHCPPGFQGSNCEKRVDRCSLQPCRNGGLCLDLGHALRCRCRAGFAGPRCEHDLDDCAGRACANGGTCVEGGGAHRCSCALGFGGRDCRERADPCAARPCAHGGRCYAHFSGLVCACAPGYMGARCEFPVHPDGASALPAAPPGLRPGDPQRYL


Legend:
human DLL3 on cells = molecular target: T1, human DLL3 on cells; assay: flow cytometry, DLL3/H82 cells; set-up: key to Emax: geometric mean fluorescence intensity (flow cytometry)
Experimental: The plates were centrifuged at 300 g for 5 min, and the supernatant was removed. Different concentrations of test antibodies were added at 100 μL/well. The plates were incubated in the dark in a refrigerator at 4° C. for 1 h. After 3 centrifugal washes at 300 g, working concentrations of APC anti-human IgG Fc (BioLegend, 410712) or PE F(ab′)2-goat anti-human IgG (invitrogen, H10104) were added. The plates were incubated in the dark in a refrigerator at 4° C. for 40 min. After 3 centrifugal washes at 300 g, the geometric mean fluorescence intensity was measured on an Invitrogen flow cytometer, and the EC50 values for the binding of the antibodies to DLL3-expressing cells were calculated.

[1] = molecular target: T2, human DLL3 (ACRO, DLL3-H52H4); assay: SPR Biacore 8K, Ab captured on Protein A
Source text: Test antibodies were affinity-captured with a Protein A biosensor chip (Cat. #29127556, Cytiva) for 18 seconds, and then the antigens human DLL3 (ACRO, DLL3-H52H4), cynomolgus monkey DLL3 (KACTUS, DLL-RM103), mouse DLL3 (KACTUS, DLL-MM103), human CD3D&3E (ACRO, CDD-H52W1), and monkey CD3D&3E (ACRO, CDD-C52W4) were allowed to flow through the surface of the chip for 180 seconds, followed by 600 seconds of dissociation. Reaction signals were detected in real time using a Biacore 8K (Cytiva) instrument to obtain association and dissociation curves. After the dissociation in each experimental cycle, the chip was washed and regenerated with a 10 mM glycine-hydrochloric acid solution (pH 1.5, Cat. #BR-1003-54, Cytiva). Data fitting was performed using a 1:1 Model.

| EC50 (human DLL3 on cells) | Emax (human DLL3 on cells) | Kd [1] | koff [1] | kon [1] | Binder |
| --- | --- | --- | --- | --- | --- |
| 560 pM | 5750 | 1380 pM | 0.00143 s⁻¹ | 1.04e+06 M⁻¹ s⁻¹ | hu30L1H6 (antibody, human IgG1, kappa, V domains shown) VH: EVRLVQSGAEVKKPGASVKVSCKASGYTFTDYYMNWVRQAPGQSLEWMGIINPYNVDTSYNQKFRGRVTLTVDKSASTAYMELSSLRSEDTAVYYCARYHYGPHLEGYFDVWGQGTTVTVSS VL: DIVMTQSPDSLAVSLGERATINCKASENVGYVSWYQQKPGQPPKLLIYGASNRYTGVPDRFSGSGSGTDFTLTISSLQAEDVAVYYCGQSYSYPLTFGQGTKLEIKR |
| 830 pM | 5580 | 1090 pM | 0.000983 s⁻¹ | 900000 M⁻¹ s⁻¹ | hu30L2H7 (antibody, human IgG1, kappa) heavy: not shown light: DIVMTQSPDSLAVSLGERATINCKASENVGYVSWYQQKPGQPPKLLIYGASNRYTGVPDRFSGSGSATDFTLTISSLQAEDVAVYHCGQSYSYPLTFGQGTKLEIKRTVAAPSVFIFPPSDEQLKSGTASVVCLLNNFYPREAKVQWKVDNALQSGNSQESVTEQDSKDSTYSLSSTLTLSKADYEKHKVYACEVTHQGLSSPVTKSFNRGEC |
| 460 pM | 5340 | 939 pM | 0.000894 s⁻¹ | 952000 M⁻¹ s⁻¹ | hu30L3H6 (antibody, human IgG1, kappa, V domains shown) VH: EVRLVQSGAEVKKPGASVKVSCKASGYTFTDYYMNWVRQAPGQSLEWMGIINPYNVDTSYNQKFRGRVTLTVDKSASTAYMELSSLRSEDTAVYYCARYHYGPHLEGYFDVWGQGTTVTVSS VL: DIVMTQSPKSLAVSLGERATINCKASENVGYVSWYQQKPGQSPKLLIYGASNRYTGVPDRFSGSGSATDFTLTISSLQAEDVAVYHCGQSYSYPLTFGQGTKLEIKR |
| 650 pM | 5570 | 969 pM | 0.000907 s⁻¹ | 935000 M⁻¹ s⁻¹ | hu30L2H5 (antibody, human IgG1, kappa, V domains shown) VH: EVRLVQSGAEVKKPGASVKVSCKASGYTFTDYYMNWVRQAPGQSLEWMGIINPYTGDTSYNQKFRGRVTLTVDKSASTAYMELSSLRSEDTAVYYCARYHYGPHLEGYFDVWGQGTTVTVSS VL: DIVMTQSPDSLAVSLGERATINCKASENVGYVSWYQQKPGQPPKLLIYGASNRYTGVPDRFSGSGSATDFTLTISSLQAEDVAVYHCGQSYSYPLTFGQGTKLEIKR |
| 590 pM | 4720 | 1410 pM | 0.00138 s⁻¹ | 981000 M⁻¹ s⁻¹ | hu30L2H3 (antibody, human IgG1, kappa, V domains shown) VH: EVRLVQSGAEVKKPGASVKVSCKASGYTFTDYYMNWVRQAPGQSLEWMGIINPYQGDTSYNQKFRGRVTLTVDKSASTAYMELSSLRSEDTAVYYCARYHYGPHLEGYFDVWGQGTTVTVSS VL: DIVMTQSPDSLAVSLGERATINCKASENVGYVSWYQQKPGQPPKLLIYGASNRYTGVPDRFSGSGSATDFTLTISSLQAEDVAVYHCGQSYSYPLTFGQGTKLEIKR |
| 430 pM | 5300 | 1250 pM | 0.00131 s⁻¹ | 1.05e+06 M⁻¹ s⁻¹ | hu30L3H3 (antibody, human IgG1, kappa, V domains shown) VH: EVRLVQSGAEVKKPGASVKVSCKASGYTFTDYYMNWVRQAPGQSLEWMGIINPYQGDTSYNQKFRGRVTLTVDKSASTAYMELSSLRSEDTAVYYCARYHYGPHLEGYFDVWGQGTTVTVSS VL: DIVMTQSPKSLAVSLGERATINCKASENVGYVSWYQQKPGQSPKLLIYGASNRYTGVPDRFSGSGSATDFTLTISSLQAEDVAVYHCGQSYSYPLTFGQGTKLEIKR |
| 440 pM | 5390 | 891 pM | 0.000762 s⁻¹ | 855000 M⁻¹ s⁻¹ | hu30L3H2 (antibody, human IgG1, kappa) heavy: not shown light: DIVMTQSPKSLAVSLGERATINCKASENVGYVSWYQQKPGQSPKLLIYGASNRYTGVPDRFSGSGSATDFTLTISSLQAEDVAVYHCGQSYSYPLTFGQGTKLEIKRTVAAPSVFIFPPSDEQLKSGTASVVCLLNNFYPREAKVQWKVDNALQSGNSQESVTEQDSKDSTYSLSSTLTLSKADYEKHKVYACEVTHQGLSSPVTKSFNRGEC |
| 540 pM | 5440 | 1070 pM | 0.00104 s⁻¹ | 966000 M⁻¹ s⁻¹ | hu30L2H4 (antibody, human IgG1, kappa, V domains shown) VH: EVRLVQSGAEVKKPGASVKVSCKASGYTFTDYYMNWVRQAPGQSLEWMGIINPYSGDTSYNQKFRGRVTLTVDKSASTAYMELSSLRSEDTAVYYCARYHYGPHLEGYFDVWGQGTTVTVSS VL: DIVMTQSPDSLAVSLGERATINCKASENVGYVSWYQQKPGQPPKLLIYGASNRYTGVPDRFSGSGSATDFTLTISSLQAEDVAVYHCGQSYSYPLTFGQGTKLEIKR |
| 690 pM | 5420 | 1080 pM | 0.000988 s⁻¹ | 915000 M⁻¹ s⁻¹ | hu30L2H6 (antibody, human IgG1, kappa, V domains shown) VH: EVRLVQSGAEVKKPGASVKVSCKASGYTFTDYYMNWVRQAPGQSLEWMGIINPYNVDTSYNQKFRGRVTLTVDKSASTAYMELSSLRSEDTAVYYCARYHYGPHLEGYFDVWGQGTTVTVSS VL: DIVMTQSPDSLAVSLGERATINCKASENVGYVSWYQQKPGQPPKLLIYGASNRYTGVPDRFSGSGSATDFTLTISSLQAEDVAVYHCGQSYSYPLTFGQGTKLEIKR |
| 430 pM | 5250 | 735 pM | 0.00082 s⁻¹ | 1.12e+06 M⁻¹ s⁻¹ | hu30L3H5 (antibody, human IgG1, kappa, V domains shown) VH: EVRLVQSGAEVKKPGASVKVSCKASGYTFTDYYMNWVRQAPGQSLEWMGIINPYTGDTSYNQKFRGRVTLTVDKSASTAYMELSSLRSEDTAVYYCARYHYGPHLEGYFDVWGQGTTVTVSS VL: DIVMTQSPKSLAVSLGERATINCKASENVGYVSWYQQKPGQSPKLLIYGASNRYTGVPDRFSGSGSATDFTLTISSLQAEDVAVYHCGQSYSYPLTFGQGTKLEIKR |
| 430 pM | 5340 | 882 pM | 0.000956 s⁻¹ | 1.08e+06 M⁻¹ s⁻¹ | hu30L3H4 (antibody, human IgG1, kappa, V domains shown) VH: EVRLVQSGAEVKKPGASVKVSCKASGYTFTDYYMNWVRQAPGQSLEWMGIINPYSGDTSYNQKFRGRVTLTVDKSASTAYMELSSLRSEDTAVYYCARYHYGPHLEGYFDVWGQGTTVTVSS VL: DIVMTQSPKSLAVSLGERATINCKASENVGYVSWYQQKPGQSPKLLIYGASNRYTGVPDRFSGSGSATDFTLTISSLQAEDVAVYHCGQSYSYPLTFGQGTKLEIKR |
| 890 pM | 5740 | 658 pM | 0.000571 s⁻¹ | 867000 M⁻¹ s⁻¹ | hu30L2H1 (antibody, human IgG1, kappa, V domains shown) VH: EVQLVQSGAEVKKPGASVKVSCKASGYTFTDYYMNWVRQAPGQSLEWMGIINPYNGDTSYNQKFRGRVTITVDKSASTAYMELSSLRSEDTAVYYCARYHYGPHLEGYFDVWGQGTTVTVSS VL: DIVMTQSPDSLAVSLGERATINCKASENVGYVSWYQQKPGQPPKLLIYGASNRYTGVPDRFSGSGSATDFTLTISSLQAEDVAVYHCGQSYSYPLTFGQGTKLEIKR |
| 510 pM | 5530 | 362 pM | 0.00059 s⁻¹ | 1.63e+06 M⁻¹ s⁻¹ | hu30L3H1 (antibody, human IgG1, kappa, V domains shown) VH: EVQLVQSGAEVKKPGASVKVSCKASGYTFTDYYMNWVRQAPGQSLEWMGIINPYNGDTSYNQKFRGRVTITVDKSASTAYMELSSLRSEDTAVYYCARYHYGPHLEGYFDVWGQGTTVTVSS VL: DIVMTQSPKSLAVSLGERATINCKASENVGYVSWYQQKPGQSPKLLIYGASNRYTGVPDRFSGSGSATDFTLTISSLQAEDVAVYHCGQSYSYPLTFGQGTKLEIKR |

Reference: patent US20250376519A1 (JIANGSU HENGRUI PHARMACEUTICALS, published 2025)
